Laboratory results reported in patent EP1616575B1 (ZymoGenetics, Inc., dated 2012).

How the values were obtained:
[1] = molecular target: T1, IL-20RA (human, UniProt Q9UHF4 30-553); test: radiolabeled IL-20 binding to BHK cells stably transfected with IL-20RA alone
T1 construct: Expressed alone on stably transfected BHK cells; also called Zcytor7; IL-20RA receptor subunit alone
T1 sequence: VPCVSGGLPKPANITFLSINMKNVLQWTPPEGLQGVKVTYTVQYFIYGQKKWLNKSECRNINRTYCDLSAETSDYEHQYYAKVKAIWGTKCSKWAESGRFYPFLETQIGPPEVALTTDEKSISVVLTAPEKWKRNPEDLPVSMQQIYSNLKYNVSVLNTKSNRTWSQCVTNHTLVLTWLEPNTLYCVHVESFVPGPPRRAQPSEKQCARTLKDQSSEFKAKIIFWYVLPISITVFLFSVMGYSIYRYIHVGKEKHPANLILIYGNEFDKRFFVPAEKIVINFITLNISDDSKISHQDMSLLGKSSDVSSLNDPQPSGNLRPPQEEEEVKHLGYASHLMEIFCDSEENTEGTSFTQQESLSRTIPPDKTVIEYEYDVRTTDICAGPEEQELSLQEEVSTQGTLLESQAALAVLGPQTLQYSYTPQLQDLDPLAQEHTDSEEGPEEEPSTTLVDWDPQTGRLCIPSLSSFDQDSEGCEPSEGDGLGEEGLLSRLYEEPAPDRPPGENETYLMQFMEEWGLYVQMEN

[2] = molecular target: T2, IL-20RB (human, UniProt Q6UXL0 30-311); test: radiolabeled IL-20 binding to BHK cells stably transfected with IL-20RB alone
T2 construct: Expressed alone on stably transfected BHK cells; also called IL-20RB receptor subunit alone
T2 sequence: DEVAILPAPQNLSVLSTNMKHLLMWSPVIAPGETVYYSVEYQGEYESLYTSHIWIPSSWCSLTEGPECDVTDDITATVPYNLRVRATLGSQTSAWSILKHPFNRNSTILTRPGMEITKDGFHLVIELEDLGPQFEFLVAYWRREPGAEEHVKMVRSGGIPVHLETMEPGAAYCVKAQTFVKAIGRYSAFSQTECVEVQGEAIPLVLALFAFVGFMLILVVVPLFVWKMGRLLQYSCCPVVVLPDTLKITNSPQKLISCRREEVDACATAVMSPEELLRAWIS

[3] = molecular target: T3, IL-20RA/IL-20RB heterodimeric receptor (human, UniProt Q9UHF4 30-553; Q6UXL0 30-311); test: 125I-IL-20 binding to BHK cells stably transfected with IL-20RA and IL-20RB
T3 construct: Both subunits co-expressed on cells: transfected COS, BHK and BaF3 cells, and endogenous on HaCaT keratinocytes; also called IL-20 receptor; IL-20RB-IL-20RA heterodimer
T3 sequence 1: T1 sequence
T3 sequence 2: T2 sequence

- binding result [1]: no binding
- binding result [2]: no binding
- Kd [3]: ~1.5 nM
B1: IL-20 (ligand, UniProt Q9NYY1 25-176, looked up)
chain: LKTLNLGSCVIATNLQEIRNGFSEIRGSVQAKDGNIDIRILRRTESLQDTKPANRCCLLRHLLRLYLDRVFKNYQTPDHYTLRKISSLANSFLTIKKDLRLCHAHMTCHCGEEAMKKYSQILSHFEKLEPQAAVVKALGELDILLQWMEETE
notes: also called Zcyto10; biotin-labeled IL-20 protein
